# Results from the supplement of paper PMC7877785.
# ± gives the uncertainty stated by the source.
# Test: self-splicing fitness, log relative to wild type (ln ratio); higher = more splicing; Tetrahymena group I intron in knt gene, E. coli kanamycin selection, DiMSum; sequences stand for … in CUCUCU…GGAGGGAAAAGUUAUCAGGCAUGCACCUGGUAGCUAGUCUUUAAACCAAUAGAUUGCAUCGGUUUAAAAGGCAAGACCGUCAAAUUGCGGGAAAGGGGUCAACAGCCGUUCAGUACCAAGUCUCAGGGGAAACUUUGAGAUGGCCUUGCAAAGGGUAUGGUAAUAAGCUGACGGACAUGGUCCUAACCACGCAGCCAAGUCCUAAGUCAACAGAUCUUCUGUUGAUAUGGAUGCAGUUCACAGACUAAAUGUCGGUCGGGGAAGAUGUAUUCUUCUCAUAAGAUAUAGUCGGACCUCUCCUUAAUGGGAGCUAGCGGAUGAAGUGAUGCAACACUGGAGCCGCUGGGAACUAAUUUGUAUGCGAAAGUAUAUUGAUUAGUUUUGGAGUACUCGUGGUCG
# In short: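 Six replicate transformations of E. coli BL21(DE3) with a pET-22b(+) library were grown overnight at 37°C or 30°C. The library randomised all eight P1ex-region intron nucleotides, the intron lying in the knt kanamycin-resistance gene, and plates were LB agar with or without 25 μg/mL kanamycin plus 100 μg/mL carbenicillin, 50 μM IPTG and 0.2% rhamnose. Pooled colonies were amplicon-sequenced on an Illumina HiSeq 2500, and fitness is the DiMSum error-weighted combination of wild-type-normalised replicate fold changes, kanamycin versus none.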
Sequence,self-splicing fitness (ln) (30 °C),self-splicing fitness (ln) (37 °C)
GCUCAGCAAUAUUACGCCCU,-1.18 ± 0.19,0.764 ± 0.18
ACAGAGCAAUAUUACGUAAG,-2.36 ± 0.11,-1.73 ± 0.14
UGUCAGCAAUAUUACGUUAU,-3.1 ± 0.12,-1.77 ± 0.11
UAGUAGCAAUAUUACGUGGA,-2.56 ± 0.31,-1.29 ± 0.2
GUUGAGCAAUAUUACGUGCU,-1.95 ± 0.35,
GGGCAGCAAUAUUACGGACU,-0.562 ± 0.07,-0.255 ± 0.091
GGUUAGCAAUAUUACGGUUA,-1.23 ± 0.11,-0.486 ± 0.082
CAUAAGCAAUAUUACGUACG,-0.507 ± 0.053,0.239 ± 0.074
ACACAGCAAUAUUACGGCGG,-0.95 ± 0.069,-0.0948 ± 0.088
AGGAAGCAAUAUUACGACAA,-1.66 ± 0.12,-1.49 ± 0.14
GUUGAGCAAUAUUACGUAGU,-2.05 ± 0.15,-1.31 ± 0.18
UGUCAGCAAUAUUACGCUGU,-3.1 ± 0.23,-1.63 ± 0.19
CCUGAGCAAUAUUACGGCGC,-4.1 ± 0.28,
CAGGAGCAAUAUUACGUAGA,-3.42 ± 0.28,-1.56 ± 0.21
UUUCAGCAAUAUUACGCCUA,-0.129 ± 0.066,0.414 ± 0.078
GCCCAGCAAUAUUACGCAUG,-3.92 ± 0.33,-2.24 ± 0.38
UGCUAGCAAUAUUACGUCGU,-2.15 ± 0.14,-3.03 ± 0.31
GCACAGCAAUAUUACGUCUG,-2.53 ± 0.1,-1.27 ± 0.11
CGUCAGCAAUAUUACGUACC,-1.33 ± 0.13,0.208 ± 0.15
AGGGAGCAAUAUUACGUCCU,-2.66 ± 0.29,-1.55 ± 0.24
UGUCAGCAAUAUUACGUUUG,-1.26 ± 0.061,0.085 ± 0.095
GUUCAGCAAUAUUACGAGUA,-1.66 ± 0.19,-0.65 ± 0.16
GCUAAGCAAUAUUACGCGGU,-2.97 ± 0.27,-2.72 ± 0.25
CAUCAGCAAUAUUACGAAAU,-4.26 ± 0.2,-2.66 ± 0.16
CAGAAGCAAUAUUACGAAGU,-3.9 ± 0.37,-2.48 ± 0.26

Sequence,self-splicing fitness (ln) (30 °C),self-splicing fitness (ln) (37 °C)
GUUUAGCAAUAUUACGGGCU,-3.45 ± 0.34,-0.606 ± 0.2
AUAAAGCAAUAUUACGUCCU,0.13 ± 0.054,0.82 ± 0.079
CGGUAGCAAUAUUACGAACG,-1.54 ± 0.13,-1.29 ± 0.14
CCGCAGCAAUAUUACGACUC,-3.06 ± 0.23,-2.02 ± 0.26
UUACAGCAAUAUUACGAGUU,-4.21 ± 0.21,-2.18 ± 0.14
UACUAGCAAUAUUACGUGCU,-3.85 ± 0.32,-3.06 ± 0.27
UACUAGCAAUAUUACGUUUG,-3.28 ± 0.18,-2.21 ± 0.29
AGUCAGCAAUAUUACGGAUC,-0.312 ± 0.11,-0.438 ± 0.2
CUUAAGCAAUAUUACGCCCU,-3.17 ± 0.32,-1.96 ± 0.43
GAUAAGCAAUAUUACGUCCA,-1.72 ± 0.15,-0.215 ± 0.17
UGGAAGCAAUAUUACGAUGC,-1.67 ± 0.25,-1.13 ± 0.31
AGUGAGCAAUAUUACGAACU,-2.3 ± 0.18,-2.58 ± 0.33
UGGUAGCAAUAUUACGAGAA,,-1.11 ± 0.36
UUAUAGCAAUAUUACGCGUA,-0.829 ± 0.14,-1.17 ± 0.14
GAUGAGCAAUAUUACGGGAG,-3.76 ± 0.25,-1.54 ± 0.41
CUGAAGCAAUAUUACGUGCA,-3.96 ± 0.27,-2.82 ± 0.25
CAAAAGCAAUAUUACGAUCC,-2.58 ± 0.22,-1.26 ± 0.24
UCUGAGCAAUAUUACGGCGC,-3.06 ± 0.29,-2.02 ± 0.32
CCGCAGCAAUAUUACGGCCC,-3.3 ± 0.48,
GUCUAGCAAUAUUACGAGAA,-1.8 ± 0.39,-0.829 ± 0.27
AGCAAGCAAUAUUACGCCAC,-3.17 ± 0.28,-3.33 ± 0.28
CUUCAGCAAUAUUACGUGUU,-3.34 ± 0.19,-2.72 ± 0.24
GCUUAGCAAUAUUACGUGGG,-1.53 ± 0.093,-1.72 ± 0.1
UCCUAGCAAUAUUACGGCGG,-3.94 ± 0.27,-2.92 ± 0.2
